In US20240301041A1:

Legend:
[1] = biological target: IgG binding protein (Protein A homolog SpsQ/SpsP) on MRSP S. pseudintermedius 88493 (Staphylococcus pseudintermedius); test: ELISA, coated S. pseudintermedius 88493, antibody 3.86E-08 M
[2] = biological target: IgG binding protein (Protein A homolog SpsQ/SpsP) on MRSP S. pseudintermedius 88493 (Staphylococcus pseudintermedius); test: ELISA, coated S. pseudintermedius 88493, antibody 3.09E-07 M
[3] = biological target: IgG binding protein (Protein A homolog SpsQ/SpsP) on MRSP S. pseudintermedius 88493 (Staphylococcus pseudintermedius); test: ELISA, coated S. pseudintermedius 88493, antibody 1.18E-12 M
[4] = biological target: IgG binding protein (Protein A homolog SpsQ/SpsP) on MRSP S. pseudintermedius 88493 (Staphylococcus pseudintermedius); test: ELISA, coated S. pseudintermedius 88493, antibody 7.54E-11 M
[5] = biological target: IgG binding protein (Protein A homolog SpsQ/SpsP) on S. intermedius 27369 (Staphylococcus intermedius); test: ELISA, coated S. intermedius 27369, antibody 1.18E-12 M
[6] = biological target: IgG binding protein (Protein A homolog SpsQ/SpsP) on S. intermedius 27369 (Staphylococcus intermedius); test: ELISA, coated S. intermedius 27369, antibody 1.47E-13 M
[7] = biological target: IgG binding protein (Protein A homolog SpsQ/SpsP) on S. intermedius 27369 (Staphylococcus intermedius); test: ELISA, coated S. intermedius 27369, antibody 9.42E-12 M
[8] = biological target: Protein A on the surface of S. aureus Newman wild-type (Staphylococcus aureus (strain Newman)) (UniProt P38507); test: ELISA, coated S. aureus Newman, antibody 3.86E-08 M
[9] = biological target: IgG binding protein (Protein A homolog SpsQ/SpsP) on MRSP S. pseudintermedius 88493 (Staphylococcus pseudintermedius); test: ELISA, coated S. pseudintermedius 88493, antibody 4.82E-09 M
[10] = biological target: IgG binding protein (Protein A homolog SpsQ/SpsP) on S. pseudintermedius AHDRCC 98200 (Staphylococcus pseudintermedius); test: ELISA, coated S. pseudintermedius 98200, antibody 6.03E-10 M
[11] = biological target: IgG binding protein (Protein A homolog SpsQ/SpsP) on S. intermedius 27369 (Staphylococcus intermedius); test: ELISA, coated S. intermedius 27369, antibody 7.54E-11 M
[12] = biological target: IgG binding protein (Protein A homolog SpsQ/SpsP) on S. intermedius 27369 (Staphylococcus intermedius); test: ELISA, coated S. intermedius 27369, antibody 4.82E-09 M
[13] = biological target: IgG binding protein (Protein A homolog SpsQ/SpsP) on S. pseudintermedius AHDRCC 98200 (Staphylococcus pseudintermedius); test: ELISA, coated S. pseudintermedius 98200, antibody 3.86E-08 M
[14] = biological target: IgG binding protein (Protein A homolog SpsQ/SpsP) on S. pseudintermedius AHDRCC 98200 (Staphylococcus pseudintermedius); test: ELISA, coated S. pseudintermedius 98200, antibody 9.42E-12 M
[15] = biological target: IgG binding protein (Protein A homolog SpsQ/SpsP) on S. intermedius 27369 (Staphylococcus intermedius); test: ELISA, coated S. intermedius 27369, antibody 6.03E-10 M
[16] = biological target: Protein A on the surface of S. aureus Newman wild-type (Staphylococcus aureus (strain Newman)) (UniProt P38507); test: ELISA, coated S. aureus Newman, antibody 3.09E-07 M
[17] = biological target: Protein A on the surface of S. aureus Newman wild-type (Staphylococcus aureus (strain Newman)) (UniProt P38507); test: ELISA, coated S. aureus Newman, antibody 6.03E-10 M
[18] = biological target: IgG binding protein (Protein A homolog SpsQ/SpsP) on S. pseudintermedius AHDRCC 98200 (Staphylococcus pseudintermedius); test: ELISA, coated S. pseudintermedius 98200, antibody 7.54E-11 M
[19] = biological target: Protein A on the surface of S. aureus Newman wild-type (Staphylococcus aureus (strain Newman)) (UniProt P38507); test: ELISA, coated S. aureus Newman, antibody 1.18E-12 M
[20] = biological target: IgG binding protein (Protein A homolog SpsQ/SpsP) on S. pseudintermedius AHDRCC 98200 (Staphylococcus pseudintermedius); test: ELISA, coated S. pseudintermedius 98200, antibody 1.18E-12 M
[21] = biological target: IgG binding protein (Protein A homolog SpsQ/SpsP) on S. pseudintermedius AHDRCC 98200 (Staphylococcus pseudintermedius); test: ELISA, coated S. pseudintermedius 98200, antibody 1.47E-13 M
[22] = biological target: IgG binding protein (Protein A homolog SpsQ/SpsP) on S. intermedius 27369 (Staphylococcus intermedius); test: ELISA, coated S. intermedius 27369, antibody 3.86E-08 M
[23] = biological target: IgG binding protein (Protein A homolog SpsQ/SpsP) on S. intermedius 27369 (Staphylococcus intermedius); test: ELISA, coated S. intermedius 27369, antibody 3.09E-07 M
[24] = biological target: IgG binding protein (Protein A homolog SpsQ/SpsP) on MRSP S. pseudintermedius 88493 (Staphylococcus pseudintermedius); test: ELISA, coated S. pseudintermedius 88493, antibody 6.03E-10 M
[25] = biological target: IgG binding protein (Protein A homolog SpsQ/SpsP) on S. pseudintermedius AHDRCC 98200 (Staphylococcus pseudintermedius); test: ELISA, coated S. pseudintermedius 98200, antibody 4.82E-09 M
[26] = biological target: Protein A on the surface of S. aureus Newman wild-type (Staphylococcus aureus (strain Newman)) (UniProt P38507); test: ELISA, coated S. aureus Newman, antibody 9.42E-12 M
[27] = biological target: Protein A on the surface of S. aureus Newman wild-type (Staphylococcus aureus (strain Newman)) (UniProt P38507); test: ELISA, coated S. aureus Newman, antibody 1.47E-13 M
[28] = biological target: Protein A on the surface of S. aureus Newman wild-type (Staphylococcus aureus (strain Newman)) (UniProt P38507); test: ELISA, coated S. aureus Newman, antibody 7.54E-11 M
[29] = biological target: IgG binding protein (Protein A homolog SpsQ/SpsP) on S. pseudintermedius AHDRCC 98200 (Staphylococcus pseudintermedius); test: ELISA, coated S. pseudintermedius 98200, antibody 3.09E-07 M
[30] = biological target: IgG binding protein (Protein A homolog SpsQ/SpsP) on MRSP S. pseudintermedius 88493 (Staphylococcus pseudintermedius); test: ELISA, coated S. pseudintermedius 88493, antibody 1.47E-13 M
[31] = biological target: IgG binding protein (Protein A homolog SpsQ/SpsP) on MRSP S. pseudintermedius 88493 (Staphylococcus pseudintermedius); test: ELISA, coated S. pseudintermedius 88493, antibody 9.42E-12 M
[32] = biological target: Protein A on the surface of S. aureus Newman wild-type (Staphylococcus aureus (strain Newman)) (UniProt P38507); test: ELISA, coated S. aureus Newman, antibody 4.82E-09 M
[33] = biological target: IgG binding protein (Protein A homolog SpsQ/SpsP) on S. intermedius 27369 (Staphylococcus intermedius); test: cell-based or functional assay
[34] = biological target: IgG binding protein (Protein A homolog SpsQ/SpsP) on S. pseudintermedius AHDRCC 98200 (Staphylococcus pseudintermedius); test: cell-based or functional assay
[35] = biological target: Protein A on the surface of S. aureus Newman wild-type (Staphylococcus aureus (strain Newman)) (UniProt P38507); test: cell-based or functional assay

Row | Substance | ELISA luminescent signal [1] | ELISA luminescent signal [2] | ELISA luminescent signal [3] | ELISA luminescent signal [4] | ELISA luminescent signal [5] | ELISA luminescent signal [6] | ELISA luminescent signal [7] | ELISA luminescent signal [8] | ELISA luminescent signal [9] | ELISA luminescent signal [10] | ELISA luminescent signal [11] | ELISA luminescent signal [12] | ELISA luminescent signal [13] | ELISA luminescent signal [14] | ELISA luminescent signal [15] | ELISA luminescent signal [16] | ELISA luminescent signal [17] | ELISA luminescent signal [18] | ELISA luminescent signal [19] | ELISA luminescent signal [20] | also measured
1 | hIgG1 control (REGN1932) (antibody) | 14500 | 43900 | 8920 | 7560 | 9740 | 25300 | 1610 | 434000 | 8950 | 4770 | 2680 | 42100 | 36400 | 1460 | 5300 | 506000 | 509000 | 2590 | 30200 | 2830 | ELISA luminescent signal [21]: 1480; ELISA luminescent signal [22]: 34800; ELISA luminescent signal [23]: 123000; ELISA luminescent signal [24]: 11000; ELISA luminescent signal [25]: 8040; ELISA luminescent signal [26]: 72500; ELISA luminescent signal [27]: 18600; ELISA luminescent signal [28]: 253000; ELISA luminescent signal [29]: 132000; ELISA luminescent signal [30]: 8190; ELISA luminescent signal [31]: 7980; ELISA luminescent signal [32]: 652000
2 | hIgG1*/* control (REGN4440) (antibody) | 6470 | 14700 | 6710 | 6370 | 2210 | 896 | 775 | 27600 | 7360 | 2760 | 2510 | 2490 | 5100 | 1170 | 3010 | 38800 | 27500 | 2240 | 17100 | 2170 | median cfu/mL after 16 h in 50% normal human serum, mAb 270 ug/mL [33]: 8e+06 cfu/mL; median cfu/mL after 16 h in 50% normal human serum, mAb 270 ug/mL [34]: 7.5e+06 cfu/mL; median cfu/mL after 16 h in 50% normal human serum, mAb 270 ug/mL [35]: 7e+06 cfu/mL; ELISA luminescent signal [21]: 1120; ELISA luminescent signal [22]: 3850; ELISA luminescent signal [23]: 11100; ELISA luminescent signal [24]: 7080; ELISA luminescent signal [25]: 2410; ELISA luminescent signal [26]: 16700; ELISA luminescent signal [27]: 15500; ELISA luminescent signal [28]: 24400; ELISA luminescent signal [29]: 15200; ELISA luminescent signal [30]: 12300; ELISA luminescent signal [31]: 6150; ELISA luminescent signal [32]: 19400
